Assay results as given in patent KR20230128271A (dated 2023).

Biological target: T1, human recombinant HER3 (coated on ELISA plate) (human, UniProt P21860 20-643)
T1 construct: also called 인간 재조합 HER3
Assay: ELISA; plate coated with human recombinant HER3; serial dilutions 0-100 μg/ml; goat anti-human IgG F(ab')2-HRP; absorbance at 450 nm

T1 sequence (P21860 20-643 limits assumed): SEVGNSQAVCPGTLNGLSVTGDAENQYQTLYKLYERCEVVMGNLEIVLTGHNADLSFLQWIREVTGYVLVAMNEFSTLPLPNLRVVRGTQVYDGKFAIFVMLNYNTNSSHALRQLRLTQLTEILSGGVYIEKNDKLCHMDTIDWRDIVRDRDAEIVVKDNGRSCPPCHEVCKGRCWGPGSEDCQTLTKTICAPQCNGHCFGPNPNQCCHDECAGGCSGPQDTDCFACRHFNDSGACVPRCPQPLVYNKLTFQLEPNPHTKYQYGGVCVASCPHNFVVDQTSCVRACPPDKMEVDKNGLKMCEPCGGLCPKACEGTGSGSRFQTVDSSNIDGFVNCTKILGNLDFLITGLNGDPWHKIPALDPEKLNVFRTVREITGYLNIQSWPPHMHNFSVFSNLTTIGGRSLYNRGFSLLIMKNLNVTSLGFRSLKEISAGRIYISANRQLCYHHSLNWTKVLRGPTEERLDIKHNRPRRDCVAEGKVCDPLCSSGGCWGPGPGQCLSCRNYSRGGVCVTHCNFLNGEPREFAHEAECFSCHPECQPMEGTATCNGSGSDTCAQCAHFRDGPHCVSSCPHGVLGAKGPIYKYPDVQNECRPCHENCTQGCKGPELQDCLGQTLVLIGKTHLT

Row | EC50 [ng/mL] | Binder
1 | 1.7 | 225Ac-HER3-ARC (Ac225-labelled, DOTA-conjugated anti-HER3 monoclonal antibody, heavy chain SEQ ID NO: 77 and light chain SEQ ID NO: 78) (antibody, V domains shown, DOTA chelator conjugated with p-SCN-Bn-DOTA and chelating actinium-225; sites and chain not stated, also called Ac225 표지된 DOTA-접합된 항-HER3 모노클로날 항체) VH: QVQLVESGGGLVKPGGSLRLSCAASGFTFSDYAMSWIRQAPGKGLEWVSTISDGGTYTYYPDSVKGRFTISRDNAKNSLYLQMNSLRAEDTAVYYCAREWGDYDGFDYWGQGTLVTVSS VL: DIQMTQSPSSLSASVGDRVTITCRASQEISGYLSWYQQKPGKAPKRLIYAASTLDSGVPSRFSGSGSGTEFTLTISSLQPEDFATYYCLQYDSYPYTFGQGTKLEIKR
2 | 2.2 | anti-HER3 IgG monoclonal antibody consisting of heavy chain SEQ ID NO: 77 and light chain SEQ ID NO: 78 (unmodified) (antibody, V domains shown, It was detected with goat anti-human IgG F(ab')2-HRP; also called 항-HER3; 비변형된 항-HER3 mAb) VH: QVQLVESGGGLVKPGGSLRLSCAASGFTFSDYAMSWIRQAPGKGLEWVSTISDGGTYTYYPDSVKGRFTISRDNAKNSLYLQMNSLRAEDTAVYYCAREWGDYDGFDYWGQGTLVTVSS VL: DIQMTQSPSSLSASVGDRVTITCRASQEISGYLSWYQQKPGKAPKRLIYAASTLDSGVPSRFSGSGSGTEFTLTISSLQPEDFATYYCLQYDSYPYTFGQGTKLEIKR
